B1: PHTF1 (parent)
chain: RVKLISNKGTETDNDPSCVHPIIK

Experimental findings from the supplement of paper PMC10567573 are described below.
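Also: lentivirally expressed fusions sorted by FACS into six bins by GFP to DsRed ratio, PSI derived from sequencing read proportions per bin multiplied by bin number.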

The variants in this data set derive from B1. In words: protein stability index of a GFP-peptide fusion (GPS, HEK-293T) (PSI 1-6); higher = more stable. Particulars: c terminus: a fixed tail appended.
As for RVKLISNKGTKTDNDPSCVHPIIK [E11K], the protein stability index came out at 3.7. As for RVKLISNKGTFTDNDPSCVHPIIK [E11F], the protein stability index was found to be 2.71. The value for RVKLISNKGTGTDNDPSCVHPIIK [E11G] was 3.57. RVKLISNKGTMTDNDPSCVHPIIK [E11M]: the protein stability index was determined as 3.13. Then RVKLISNKGTCTDNDPSCVHPIIK [E11C], with 3.69; and RVKLISNKGTHTDNDPSCVHPIIK [E11H], with 3.41.

In the case of RVKLISNKGTITDNDPSCVHPIIK [E11I], the protein stability index worked out at 3.24. As to RVKLISNKGTATDNDPSCVHPIIK [E11A], the protein stability index came out at 4.04. Then RVKLISNKGTLTDNDPSCVHPIIK [E11L], with 3.41; and RVKLISNKGTDTDNDPSCVHPIIK [E11D], with 4.05; and WVKLISNKGTETDNDPSCVHPIIK [R1W], with 2.81.

SVKLISNKGTETDNDPSCVHPIIK [R1S]: the protein stability index stood at 4.56. Then YVKLISNKGTETDNDPSCVHPIIK [R1Y], with 2.79. Regarding TVKLISNKGTETDNDPSCVHPIIK [R1T], the protein stability index came out at 4.2.

On to PVKLISNKGTETDNDPSCVHPIIK [R1P], for which the protein stability index is 4.44. The value for QVKLISNKGTETDNDPSCVHPIIK [R1Q] was 4.45; that for VVKLISNKGTETDNDPSCVHPIIK [R1V] was 3.41. Then RVKDISNKGTETDNDPSCVHPIIK [L4D], with 4.18; and RVKEISNKGTETDNDPSCVHPIIK [L4E], with 5.13.

As to RVKHISNKGTETDNDPSCVHPIIK [L4H], the protein stability index turned out to be 4.27.

Turning to RVKPISNKGTETDNDPSCVHPIIK [L4P], the protein stability index worked out at 4.82. Then RVKGISNKGTETDNDPSCVHPIIK [L4G], with 4.44; and RVKYISNKGTETDNDPSCVHPIIK [L4Y], with 3.77; and RVKKISNKGTETDNDPSCVHPIIK [L4K], with 4.43. The value for RVKAISNKGTETDNDPSCVHPIIK [L4A] was 4.57; that for RVKFISNKGTETDNDPSCVHPIIK [L4F] was 3.9; that for RVKRISNKGTETDNDPSCVHPIIK [L4R] was 4.25.

Regarding RVKNISNKGTETDNDPSCVHPIIK [L4N], the protein stability index was 4.48. The value for RVKCISNKGTETDNDPSCVHPIIK [L4C] was 4.48. The value for RVKWISNKGTETDNDPSCVHPIIK [L4W] was 4.24; that for RVKMISNKGTETDNDPSCVHPIIK [L4M] was 4.13. The value for RVKIISNKGTETDNDPSCVHPIIK [L4I] was 4.19; that for RVKVISNKGTETDNDPSCVHPIIK [L4V] was 3.86; that for RVKSISNKGTETDNDPSCVHPIIK [L4S] was 4.61. As to RVKQISNKGTETDNDPSCVHPIIK [L4Q], the protein stability index was found to be 5.02. Then RVKTISNKGTETDNDPSCVHPIIK [L4T], with 4.84. For RVKLISSKGTETDNDPSCVHPIIK [N7S], the protein stability index worked out at 4.22. Then RVKLISGKGTETDNDPSCVHPIIK [N7G], with 3.96; and RVKLISLKGTETDNDPSCVHPIIK [N7L], with 3.36; and RVKLISRKGTETDNDPSCVHPIIK [N7R], with 3.47. Then RVKLISAKGTETDNDPSCVHPIIK [N7A], with 4.02; and RVKLISWKGTETDNDPSCVHPIIK [N7W], with 3.1. In the case of RVKLISQKGTETDNDPSCVHPIIK [N7Q], the protein stability index is 4.09.

Turning to RVKLISCKGTETDNDPSCVHPIIK [N7C], the protein stability index is 3.64. Then RVKLISMKGTETDNDPSCVHPIIK [N7M], with 3.36; and RVKLISFKGTETDNDPSCVHPIIK [N7F], with 2.92.

Take RVKLISKKGTETDNDPSCVHPIIK [N7K]: the protein stability index stood at 4.31. The value for RVKLISVKGTETDNDPSCVHPIIK [N7V] was 3.77; that for RVKLISEKGTETDNDPSCVHPIIK [N7E] was 4.2.

On to RVKLISYKGTETDNDPSCVHPIIK [N7Y], for which the protein stability index came out at 3.32. Then RVKLISDKGTETDNDPSCVHPIIK [N7D], with 4.26; and RVKLISHKGTETDNDPSCVHPIIK [N7H], with 3.79; and RVKLISPKGTETDNDPSCVHPIIK [N7P], with 4.09. Then RVKLISTKGTETDNDPSCVHPIIK [N7T], with 4.

As for RVKLISIKGTETDNDPSCVHPIIK [N7I], the protein stability index was 3.6. The value for RVKLISNKNTETDNDPSCVHPIIK [G9N] was 4.17; that for RVKLISNKPTETDNDPSCVHPIIK [G9P] was 3.95. Then RVKLISNKDTETDNDPSCVHPIIK [G9D], with 4.36. Then RVKLISNKMTETDNDPSCVHPIIK [G9M], with 3.75; and RVKLISNKWTETDNDPSCVHPIIK [G9W], with 2.8; and RVKLISNKHTETDNDPSCVHPIIK [G9H], with 4.03.

RVKLISNKITETDNDPSCVHPIIK [G9I]: the protein stability index is 3.25. Then RVKLISNKCTETDNDPSCVHPIIK [G9C], with 3.56; and RVKLISNKATETDNDPSCVHPIIK [G9A], with 4.12; and RVKLISNKLTETDNDPSCVHPIIK [G9L], with 3.64. Then RVKLISNKTTETDNDPSCVHPIIK [G9T], with 4.27.

On to RVKLISNKSTETDNDPSCVHPIIK [G9S], for which the protein stability index turned out to be 4.21. Then RVKLISNKETETDNDPSCVHPIIK [G9E], with 4.23; and RVKLISNKKTETDNDPSCVHPIIK [G9K], with 3.98; and RVKLISNKYTETDNDPSCVHPIIK [G9Y], with 3.44.

With RVKLISNKQTETDNDPSCVHPIIK [G9Q], the protein stability index stood at 4.31. With RVKLISNKVTETDNDPSCVHPIIK [G9V], the protein stability index amounted to 4.18. The value for RVKLISNKRTETDNDPSCVHPIIK [G9R] was 3.54; that for RVKLISNKFTETDNDPSCVHPIIK [G9F] was 3.19; that for RVKLISNVGTETDNDPSCVHPIIK [K8V] was 3.88.

As for RVKLISNRGTETDNDPSCVHPIIK [K8R], the protein stability index is 3.95. Then RVKLISNFGTETDNDPSCVHPIIK [K8F], with 3.56; and RVKLISNMGTETDNDPSCVHPIIK [K8M], with 3.15.

Take RVKLISNGGTETDNDPSCVHPIIK [K8G]: the protein stability index was 4.62. Then RVKLISNTGTETDNDPSCVHPIIK [K8T], with 4.33; and RVKLISNEGTETDNDPSCVHPIIK [K8E], with 4.42. In the case of RVKLISNQGTETDNDPSCVHPIIK [K8Q], the protein stability index is 4.7. The value for RVKLISNSGTETDNDPSCVHPIIK [K8S] was 4.21; that for RVKLISNCGTETDNDPSCVHPIIK [K8C] was 3.04. Then RVKLISNHGTETDNDPSCVHPIIK [K8H], with 3.94; and RVKLISNLGTETDNDPSCVHPIIK [K8L], with 3.33. Turning to RVKLISNWGTETDNDPSCVHPIIK [K8W], the protein stability index came out at 2.89. Then RVKLISNPGTETDNDPSCVHPIIK [K8P], with 3.64; and RVKLISNNGTETDNDPSCVHPIIK [K8N], with 3.96. The value for RVKLISNIGTETDNDPSCVHPIIK [K8I] was 3.78. Take RVKLISNDGTETDNDPSCVHPIIK [K8D]: the protein stability index was 4.45. Then RVKLISNAGTETDNDPSCVHPIIK [K8A], with 4.1. Then RVKLISNYGTETDNDPSCVHPIIK [K8Y], with 3.22. Then RVKLISNKGDETDNDPSCVHPIIK [T10D], with 4.1.
